In patent US20130309222A1 (Janssen / Centocor, published 2013):
Ends that are not written are not given here.

Experiments:
[1] = target: infliximab; test: SPR (Biacore S51), biotinylated peptide on streptavidin chip, infliximab as analyte, 1:1 Langmuir fit, average of N=2
[2] = target: infliximab; test: ELISA, infliximab captured on goat anti-human Fc, biotinylated peptide titrated, streptavidin-HRP, luminescence

Chain of infliximab (VH, as listed by the source, chain 1 of 2): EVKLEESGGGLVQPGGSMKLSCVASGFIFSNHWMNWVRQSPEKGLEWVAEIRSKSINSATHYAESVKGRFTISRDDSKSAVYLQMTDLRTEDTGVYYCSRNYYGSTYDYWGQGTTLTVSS
Chain of infliximab (VL, as listed by the source, chain 2 of 2): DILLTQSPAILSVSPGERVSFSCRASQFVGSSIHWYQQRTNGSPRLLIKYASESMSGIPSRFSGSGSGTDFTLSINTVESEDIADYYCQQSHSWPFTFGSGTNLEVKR

B1: biotinylated, chemically synthesized peptide having SEQ ID NO: 10 (peptide)
peptide: AGVWCGDETLPPSICFR
modifications: cysteine pairing not given here; also: biotinylated, position not given here
notes: Fmoc solid phase synthesis; also called 1067B
Kd [1]: 9.17 nM
EC50 (read off the curve) [2]: ~10000 nM

B2: biotinylated, chemically synthesized peptide having SEQ ID NO: 2 (peptide)
peptide: AGYVCDPAGPNCWA
modifications: cysteine pairing not given here; also: biotinylated, position not given here
notes: Fmoc solid phase synthesis; also called 1011A
Kd [1]: 17.1 nM
EC50 (read off the curve) [2]: ~3000 nM
